# Experimental data as given in paper doi:10.1101/2023.06.15.543498.
# pKd: −log10 of the molar value.
# Molecular target: E. coli 70S ribosomes without a bound tRNA (E. coli (endogenous in strain MRE600)) (UniProt P0A7L0)
# Experiment: populations of particle classes in cryo-EM samples
row,pKd,Substance
1,4.21,"EQ2-EttA (hydrolysis-deficient EQ2 mutant of E. coli EttA, Energy-dependent translation throttle A) (from UniProt P0A9W3 1-555) (enzyme)"
2,< 4.92,EQ2-Uup (hydrolysis-deficient EQ2 mutant of E. coli Uup) (from UniProt P43672 1-635) (enzyme)
3,5.92,EQ2-YbiT (hydrolysis-deficient EQ2 mutant of E. coli YbiT) (from UniProt P0A9U3 1-530) (enzyme)
4,< 4.72,EQ2-YheS (hydrolysis-deficient EQ2 mutant of E. coli YheS) (from UniProt P63389 1-637) (enzyme)
